One block for each binder: values may come before it.
Columns and labels:
[1] = target: T1, Hu/Cy/Rh ROR1-His (human/cyno/rhesus, UniProt Q01973 30-403, limits assumed); assay: SPR, purified protein
T1 construct: Purified His-tagged ROR1 protein; also called HUMAN/CYNO/RHESUS ROR-1; not shown: His tag

[2] = target: T2, human ROR-1 endogenously expressed on JeKo-1 and MDA-MB-468 cells (human, UniProt Q01973 30-937); assay: flow cytometry, cell binding saturation on ROR-1 positive cells
T2 construct: whole, on cells; also called ROR-1 receptor; receptor tyrosine kinase like orphan receptor 1
Method: A cell binding saturation assay was developed to evaluate how well the anti_ROR-1 antibodies developed in Example 28 bound to endogenously expressed extracellular ROR-1 protein on cell lines. […] Cells were then washed and subjected to secondary antibody staining and detection by flow cytometry. Mean fluorescence (MFI) was determined by analysis on cytometer software. […] (See FIG. 27).

[3] = target: T3, Mouse ROR1-His (mouse, UniProt Q9Z139 30-403, limits assumed); assay: SPR, purified protein
T3 construct: Purified His-tagged mouse ROR1 protein; not shown: His tag
T3 sequence (Q9Z139 30-403 limits assumed): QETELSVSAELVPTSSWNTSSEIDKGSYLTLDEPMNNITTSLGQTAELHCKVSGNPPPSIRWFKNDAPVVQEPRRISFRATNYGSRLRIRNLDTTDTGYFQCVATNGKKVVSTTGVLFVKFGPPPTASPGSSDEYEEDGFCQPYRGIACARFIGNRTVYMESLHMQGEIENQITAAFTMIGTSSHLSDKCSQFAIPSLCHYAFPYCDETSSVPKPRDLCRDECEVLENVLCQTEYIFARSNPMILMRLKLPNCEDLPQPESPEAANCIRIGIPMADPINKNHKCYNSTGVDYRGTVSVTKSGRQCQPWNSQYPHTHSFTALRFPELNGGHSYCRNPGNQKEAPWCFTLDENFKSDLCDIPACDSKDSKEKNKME

[4] = target: T2, human ROR-1 endogenously expressed on …; assay: cell-based or functional assay

Kd [1]: 0.0109 µM
koff [1]: 0.00295 s⁻¹
kon [1]: 270000 M⁻¹ s⁻¹
saturating concentration [2]: 74 nM
Kd [3]: 0.0453 µM
koff [3]: 0.00132 s⁻¹
kon [3]: 29200 M⁻¹ s⁻¹
percent receptor internalization relative to zero hours [4]: ≥ 75%
B1: ATX-P-885 (antibody, human IgG1, kappa, V domains shown)
VH: QVQLQQWGAGLLKPSETLSLTCAVYGGSFSGYYWSWIRQPPGKGLEWIGEINHSGSTNYNPSLKSRVTISVDTSKNQFSLKLSSVTAADTAVYYCAREGVYEDYWGQGTLVTVSS
VL: EIVLTQSPATLSLSPGERATLSCRASQSVSNYLAWYQQKPGQAPRLLIYDAYNRATGIPARFSGSGSGTDFTLTISSLEPEDFAVYYCQQRSNWPLTFGQGTRLEIKR
notes: Full length IgG (IgG1, kappa) expressed in HEK293; also called mAb B

saturating concentration [2]: 74 nM
B2: ATX-P-875 (antibody, human IgG1, kappa, V domains shown)
VH: not shown
VL: DIQMTQSPSSLSASVGDRVTITCRASQSISSYLNWYQQKPGKAPKLLIYAASSLQSGVPSRFSGSGSGTDFTLTISSLQPEDFATYYCQQYDNLPITFGQGTRLEIKR
notes: Full length IgG (IgG1, kappa) expressed in HEK293; also called mAb A

Source: patent publication US20230330242A1 (published 2023)
